Where a chain is given by its changes, count along the chain named.
Tests used:
[1] = target: T1, Atypical chemokine receptor 2, wild type (ACKR2-WT) (human, UniProt O00590 1-384); experiment: flow cytometry on cells; competition: transfected CHO-k1 cells incubated with unconjugated chemokine at 37 °C for 45 minutes, then stained with anti-human ACKR2 polyclonal IgG and PE secondary; blockage = 100 minus percent of ACKR2-positive cells; titration with non-linear analysis for Kd; details: one partner purified
T1 construct: Atypical chemokine receptor 2 (ACKR2), human, wild type allele, expressed on the surface of CHO-k1 cells; also called CCBP-WT; source: CHO-k1 cells, transfected (lipofectamine), G418 selected, enriched with anti-PE MicroBeads; on cells
T1 sequence (looked up): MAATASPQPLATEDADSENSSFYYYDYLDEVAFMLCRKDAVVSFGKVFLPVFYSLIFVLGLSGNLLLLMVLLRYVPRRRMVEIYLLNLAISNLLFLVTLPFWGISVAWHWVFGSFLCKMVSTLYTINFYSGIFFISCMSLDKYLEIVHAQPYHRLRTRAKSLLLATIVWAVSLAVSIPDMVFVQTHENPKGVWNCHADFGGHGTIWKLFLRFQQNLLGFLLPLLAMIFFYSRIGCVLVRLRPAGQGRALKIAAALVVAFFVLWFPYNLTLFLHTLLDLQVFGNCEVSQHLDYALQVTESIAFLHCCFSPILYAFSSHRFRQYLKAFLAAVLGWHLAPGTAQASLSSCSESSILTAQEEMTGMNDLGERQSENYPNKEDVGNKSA

[2] = target: T2, Atypical chemokine receptor 2 variant V41A (ACKR2-V41A; rs2228467) (human, UniProt O00590 1-384, V41A); experiment: as above; details: one partner purified
T2 construct: Atypical chemokine receptor 2 (ACKR2), human, natural variant V41A (rs2228467), expressed on the surface of CHO-k1 cells; also called ACRK2-V41A; source: CHO-k1 cells, transfected (lipofectamine), G418 selected, enriched with anti-PE MicroBeads; on cells
T2 sequence (looked up): T1 sequence (looked up) with V41A

B1: Chemokine ligand 4 (CCL4), unconjugated (ligand, UniProt P13236 24-92, looked up)
chain: APMGSDPPTACCFSYTARKLPRNFVVDYYETSSLCSQPAVVFQTKRSKQVCADPSESWVQEYVYDLELN
notes: Chemokine ligand 4 (CCL4), unconjugated; also called unconjugated CCL4; source: bought: PEPROTECH, Cat #300-.9
With B1 the Kd [1] was 600 nM and the Kd [2] was 2030 nM.
